Substrate in data set [1]: Nc1ncnc2c1ncn2[C@@H]1O[C@H](COP(=O)(O)OP(=O)(O)OP(=O)(O)O)[C@@H](O)[C@H]1O
Put plainly: purified protein. Conditions: reduced form (pretreated with 50 mM DTTred), ATP varied 0-2 mM, 2 mM ribose 5-phosphate plus ribose 5-phosphate isomerase, 10 mM MgCl2, 100 mM KCl, pH 7.5, 30 °C. The class given is biochemical, Nostoc sp. PCC 7120 = FACHB-418.

Substrate in data set [2]: Nc1ncnc2c1ncn2[C@@H]1O[C@H](COP(=O)(O)OP(=O)(O)OP(=O)(O)O)[C@@H](O)[C@H]1O
Put plainly: purified protein. The class given is biochemical, Arabidopsis thaliana. To be noted: reduced form (pretreated with 50 mM DTTred), ATP varied 0-2 mM, 2 mM ribose 5-phosphate plus ribose 5-phosphate isomerase, 10 mM MgCl2, 100 mM KCl, pH 7.5, 25 °C.

B1: A.7120_PRK (Nostoc sp. PCC 7120 = FACHB-418) (protein)
chain: MTTKPERVVLIGVAGDSGCGKSTFLRRLIDLFGEEFMTVICLDDYHSLDRKQRKETGITALDPRANNFDLMYEQIKALKEGQTINKPIYNHETGLIDPPEIVKPNHIVVVEGLHPLYDERVRSLLDFSVYFDISDEVKIAWKIQRDMAERGHRYEDVLAAINSRKPDFQKYIEPQREFADVVLQVLPTNLIKDDTERKVLRVRMLQREGKEGFEPAYLFDEGSTINWTPCGRKLTCSYPGMQLYYGSDVYYGRYVSVLEVDGQFDNLEEVIYIETHLSNTSTKYQGELTQLLLQHREYPGSNNGTGFFQVLTGLKMRAAYERLTTKEAKLAVQV
notes: recombinant in E. coli BL21(DE3), pET-21a; no tag stated; Cys pairs Cys19/Cys41 and Cys230/Cys236
On to B1, for which, in data set [1], the Km (as a rule, the concentration of substrate that gives half-maximal velocity) was 109 ± 4.5 µM and the Vmax (as a rule, the rate approached at saturating substrate) amounted to 214 µmol/min/mg.

B2: AtPRK (Arabidopsis thaliana) (protein)
chain: AQETIVIGLAADSGCGKSTFMRRLTSVFGGAAKPPKGGNPDSNTLISDTTTVICLDDYHSLDRYGRKEQKVTALDPRANDFDLMYEQVKALKNGIAVEKPIYNHVTGLLDPPELIQPPKILVIEGLHPMFDERVRDLLDFSIYLDISNEVKFAWKIQRDMAERGHSLESIKASIEARKPDFDAFIDPQKQYADAVIEVLPTTLIPDDNEGKVLRVRLIMKEGVKYFSPVYLFDEGSTISWIPCGRKLTCSYPGIKFNYEPDSYFDHEVSVLEMDGQFDRLDELIYVESHLSNLSTKFYGEVTQQMLKHADFPGSNNGTGLFQTIVGLKIRDLYEQLIANKATARAEAKA
notes: recombinant in E. coli BL21(DE3), pET-21a; no tag stated; dimer, calculated 79,000
Turning to B2, in data set [2], the Km is 46.5 ± 6.5 µM and the Vmax stood at 289 µmol/min/mg.

These data come from PMC9199185, “The Importance of the C-Terminal Cys Pair of Phosphoribulokinase in Phototrophs in Thioredoxin-Dependent Regulation” (Plant and Cell Physiology, 2022).
